These results are taken from the nanobody polyreactivity screen of Harvey et al. (2022).

The data set can be described thus: yeast display, Sf9 membrane polyspecificity reagent, FACS + sequencing; frameworks hold sequencing errors. A digest of the protocol: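 Genes from sorted yeast were amplified by colony PCR, read by MiSeq 2 × 250 sequencing and filtered on CDR length. These cells carried a synthetic nanobody library in Saccharomyces cerevisiae BJ5465 and were sorted by FACS into low and high (top ~1%) gates on anti-HA and streptavidin fluorescence. Polyreactivity is labelled according to the gate of origin.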
As to “QVQLVESGGGLVQAGGSLRLSCAASGSIFWQNAMGWYRQAPGKERELVARITSGGSTNYADSVKGRFTISRDNAKNTFYLQMNSLKPEDTGVYYCNRVRYRSYFAYYYWGQGTQVTVSS”, the “polyreactivity (PSR sort gate)” value is “high polyreactivity”.
In the case of “QVQLVESGGGLVQAGGSLRLSCAASGSIFWRYAMGWYRQAPGKERELVAAITWSGGTSYADSVKGRFTLSRDNAKNTVYLQMNSLKQEDTAVYYCIADGLSYYLYDYWGQGTQVTVSS”, the “polyreactivity (PSR sort gate)” value is on record as “low polyreactivity”.
With “QVQLVESGGGLVQAGGSLRLSCAASGSIFWSYAMGWYRQAPGKERELVAAITTDGGTNYADSVKGRFTISRDNAKNTVYLQMNSLKPEDTAVYYCAARYGTSYIVRWTYYAFDYWGQGTQVTVSS” the entry was “low polyreactivity”.
In the case of “QVQLVESGGGLVQAGGSLRLSCAASGSIFWSYAMGWYRQAPGKERELVASITRSGGSTYYADSVKGRFTISRDNAKNTVYLQMNSLKPEDTAVYYCNARRTTRWGSSKYEYDYWGQGTQVTVSS”, the “polyreactivity (PSR sort gate)” value is “high polyreactivity”.
Take “QVQLVESGGGLVQAGGSLRLSCAASGSIFWVNAMGWYRQAPGKERELVAAITWSAGSTYYADSVKGRFTISRDNANNTVYLQMNSLKPEDTAVYYFAAGVAWYYWTLDYWGQGTQVTVSS”: the “polyreactivity (PSR sort gate)” value is on record as “low polyreactivity”.
For “QVQLVESGGGLVQAGGSLRLSCAASGSIFWVYAMGWYRQAPGKERELVAAISNSGSTNYADSVKGRFTISRDNAKNTVYLQMNSLKPEDTAVYYCAKDSLVDHVGGYDYWGQGTQVTVSS”, the “polyreactivity (PSR sort gate)” value was “low polyreactivity”.
Consider “QVQLVESGGGLVQAGGSLRLSCAASGSIFWWNAKGWYRQAPGKERELVAAINWSTGRTYYADSVKGRFTISRDNAKNTVYLQMNSLKPEDTAVYYCNADSKSSYYWYLWYNYWGQGTQVTVSS”, for which the “polyreactivity (PSR sort gate)” value is on record as “low polyreactivity”.
Regarding “QVQLVESGGGLVQAGGSLRLSCAASGSIFWYAMGWYRQAPGKETELVAAISRGGSTYYADSVKGRFTISRDNAKNTVFLEMYRLKPEDTAVYYCATAYRYPRNAYFQRMDSWGQGTQVTVSS”, the “polyreactivity (PSR sort gate)” value was “high polyreactivity”.
As to “QVQLVESGGGLVQAGGSLRLSCAASGSIFWYYAMGWYRQAPGKERELVASISRRGGSTYYADSVKGRFTISRDNAKNTVYLQMNSLKPEDTAVYYCAAYSRTTCSTVQGTYDYWGQGTQVTVSA”, the “polyreactivity (PSR sort gate)” value is “low polyreactivity”.
With “QVQLVESGGGLVQAGGSLRLSCAASGSIFWYYAMGWYRQAPGKERELVASISSGGSTTYADSVKGRFTISCDNAKNTVYLQMISLKPEDTAVYYCNADYFGGGDYWGQGTQVTVSS”, the “polyreactivity (PSR sort gate)” value is reported as “low polyreactivity”.
The value for “QVQLVESGGGLVQAGGSLRLSCAASGSIFWYYAMGWYRQAPGKERELVASITSGGSTNYADSVKGRFTISRDNAKNTVYLQMISLKPEDTAVYYCNTDDDSSSTGYYSWGQGTQVTVSS” was “low polyreactivity”; that for “QVQLVESGGGLVQAGGSLRLSCAASGSIFYANAMGWYRQAPRKERELVAAISWSGGRTYYADSVKGRFTISRDNAKNTVYLQMISLKPEDTAVYFCAAVTRGLRFVYWGQGTQVTVSS” was “high polyreactivity”; that for “QVQLVESGGGLVQAGGSLRLSCAASGSIFYANAMGWYSQAPGKERELVAVISSGGGTYADSVKGRFTISRDNAKNTVYLQMNSLKPEDTAVYYCAADYTRESSMYYWGQGTQVTVSS” was “low polyreactivity”.
With “QVQLVESGGGLVQAGGSLRLSCAASGSIFYDYTMGWYRQAPGKERELVAAITSDGSTYYADSVKGRFTISRDNAKNTVYLQMKSLKPEDTAVYYCAVFSDVFLYYYGETYDYWGQGTQVTVSS” the entry was “high polyreactivity”; with “QVQLVESGGGLVQAGGSLRLSCAASGSIFYFNAMGWYRQAPGKEMELVATIRSGDGRTYYADSVKGRFTISRDNAKNTVYLQMNSLKPEDTAVYYCNASRVVYRQAYLYGYDYWGQGTQVTVSS”, “low polyreactivity”.
Turning to “QVQLVESGGGLVQAGGSLRLSCAASGSIFYFNAMGWYRQAPGKERELVAAINSGGSTYYADSVKGRFTISRDNAKNTVYLQMNSLKPEDTAVYYCAAVKVDYYITMYYWGQGTQVTVSS”, the “polyreactivity (PSR sort gate)” value is listed as “high polyreactivity”.
The value for “QVQLVESGGGLVQAGGSLRLSCAASGSIFYFNAMGWYRQAPGKERELVASITSGGSTNYADSVKGRFTISRDNAKNTVYLQMNSLKPEDTAVYYCNKRVHYIAGRGYDYWGQGNQVTVSS” was “low polyreactivity”; that for “QVQLVESGGGLVQAGGSLRLSCAASGSIFYFNAMGWYRQAPGKERQLVAAITSGGNTYYADSVKGRFTISRDNAKNTVYLQMNSLKPEDTAVYYCAKRGFRFPYPSLDYWGQGTQVTVSS” was “low polyreactivity”.
With “QVQLVESGGGLVQAGGSLRLSCAASGSIFYFYAMGWYRQAPGKERELVASIRWSCGRTRYADSVKGRFTISRDNAKNTVYLQMNSLKPEDTAVYYCAARGGGRPYDYWGQGTQVTVSS” the entry was “high polyreactivity”; with “QVQLVESGGGLVQAGGSLRLSCAASGSIFYFYTMGWYRQAPGKERELVAAISGGGGSTYYADSVTGRFTISRDNAKNTVYLQMNSLKPEDTAVYYCAADGAGWLDYGYWGQGTQVTVSS”, “low polyreactivity”.
With “QVQLVESGGGLVQAGGSLRLSCAASGSIFYGNAMGWYRQAPGKERELVAAISARGGSTNYADSVKGRFTISRDNAKNTVYLQMNSLKPEDTSVYYCAADTPVWSGYWYYYWGQGTQVTVSS” the entry was “low polyreactivity”; with “QVQLVESGGGLVQAGGSLRLSCAASGSIFYGNAMGWYRQAPGKERELVAAISKRGGSTYYADSVKGRFTISRDKAKNSVYLQMNSLKPEDTAVYYCAKATAGHTEYYYWGQGTQVTVSS”, “high polyreactivity”; with “QVQLVESGGGLVQAGGSLRLSCAASGSIFYGNAMGWYRQAPGKERELVADITWSGGSTYYADSVKGRFTISRDNAKNTVYLQMNSLKPEDTAVYYCAAKVKHWYYPYYYWGQGTQVTVSS”, “low polyreactivity”.
“QVQLVESGGGLVQAGGSLRLSCAASGSIFYGNAMGWYRQAPGKERELVAGISWSGGSTYYADSVKGRFTISRDNAKNTVYFQMNSLKPEDTAVYYCATVADEPRAYSGYEESDYWGQGTQVTVSS”: the “polyreactivity (PSR sort gate)” value is on record as “low polyreactivity”.
The value for “QVQLVESGGGLVQAGGSLRLSCAASGSIFYGNAMGWYRQAPGKERELVAGISWSGGSTYYADSVKGRFTISRDNAKYTVYLQMNSLKPEDTAVYYCATVADEPRAYSGYEESDYWGQGTQVTVSS” was “low polyreactivity”; that for “QVQLVESGGGLVQAGGSLRLSCAASGSIFYGNTMGWYRQEPGKERELVAPIRSVGRTYYADSVKGRYTISRDNAKNTVYLQMYSLKPEDTAVYYCAADPRSYFTSEYWGQGTQVTVSS” was “high polyreactivity”; that for “QVQLVESGGGLVQAGGSLRLSCAASGSIFYGYAMGWYRQAPGKEREFVAAITWSGGSTHYADSVKGRFTNSRDNAKNTVYVQMNSLKPEDTAVYYCAAPSYGNYPYRSYVWYGYWGQGTQVTVSS” was “high polyreactivity”.
With “QVQLVESGGGLVQAGGSLRLSCAASGSIFYGYAMGWYRQAPGKEREFVASINSGVGSTYYADSVKGRFTISRDNAKNTVYLQMNSLKPEDTAVYYCNKVHRSFTYNDGQTPAYDYWGQGTQVTVSS” the entry was “low polyreactivity”; with “QVQLVESGGGLVQAGGSLRLSCAASGSIFYGYAMGWYRQAPGKERELVAAISSSGGTTYYADSVKGRFTISRDNAKNTVYLQMNSLKPEDTAVYYCAALGGYYYRTRYNGDYWGHGTQVTVSS”, “high polyreactivity”.
Regarding “QVQLVESGGGLVQAGGSLRLSCAASGSIFYGYAMGWYRQAPGKERELVAGISNGGSTNYADSVKGRFTISRDNAKNTVYLQLNSLKPEDTAVYYCNATYYSAYSYLYGYWGQGTQVTVSS”, the “polyreactivity (PSR sort gate)” value is recorded as “low polyreactivity”.
The value for “QVQLVESGGGLVQAGGSLRLSCAASGSIFYGYAMGWYRQAPGKERELVAVITDGGGSTYYADSVKGRFTISRDNAMNTVYLQMNSLKPEDTAVYYCNRVFPPTDYEFDSWGQGTQLTVSS” was “low polyreactivity”; that for “QVQLVESGGGLVQAGGSLRLSCAASGSIFYGYAMGWYRQAPGTERELVAALSWSDGITYYADSVKGRFTISRDNGKNTGYLQMKNLKPEDTAVYSCAAEYGQYGYDYWGKGTQVTVSS” was “high polyreactivity”; that for “QVQLVESGGGLVQAGGSLRLSCAASGSIFYGYARGWYRQAPGKERELVASITSSGGSTYYADSVKGRFTISRDNAKNTDYLQMNSLKPEDSAVYYCAVIGYHYSAISPPSQTRQGYDYWGQVTQVTVSS” was “low polyreactivity”.
With “QVQLVESGGGLVQAGGSLRLSCAASGSIFYGYDMGWYRQAPGKERELVAAISRSGGSTYYADSVKGRFTISRDNAKNTVYLQMNSLKPEDTAVSYCNAYPVTFVYYVGDGYWGQGTQVTVSS” the entry was “high polyreactivity”.
In the case of “QVQLVESGGGLVQAGGSLRLSCAASGSIFYGYTMGWYRQEPGKERELVAAIRKSGGSTNYADSVKGRFTISRDNAKNTVYLQMNSLKPEDTAVFYCAAAYYRGRGYYWGQGTQVTESS”, the “polyreactivity (PSR sort gate)” value is recorded as “high polyreactivity”.
The value for “QVQLVESGGGLVQAGGSLRLSCAASGSIFYHNAMGRYRQAPGKERELVAAITGSGGSTYYADAVKGRFTISRDKAKNTVYFQMNSLKPEDTAVYDCAADGYTKWWISWGYDYWGQGTQVTVSS” was “low polyreactivity”; that for “QVQLVESGGGLVQAGGSLRLSCAASGSIFYHNAMGWYRQAPGKERELVAAISSSGGNTYYADSVKGRFTISRDNAKNTVYLQLNSLKPEDTAVYYCNKGFSYRSGRGYWGQGTQVTVSS” was “high polyreactivity”.
On to “QVQLVESGGGLVQAGGSLRLSCAASGSIFYHNAMGWYRQAPGKERELVAAITWSGSTTYYADSVKGRFTISRDNAKNTVYLQMKSLKPEDTAVYYCNAGNRHGHYDYWGQGTQVTVSS”, for which the “polyreactivity (PSR sort gate)” value is “low polyreactivity”.
The value for “QVQLVESGGGLVQAGGSLRLSCAASGSIFYHNAMGWYSPAPGKERELVAAISASGSTYYADSVKGRFTISRDNAKNTVSLQMNSLKTEDTAVYYCTFYWYNYWGQGTQVTVSS” was “high polyreactivity”.
Turning to “QVQLVESGGGLVQAGGSLRLSCAASGSIFYHYAMGWYRQAPGKERELVAAISDRGTSTYYADSVKGRFTISRDNAKNTVYLQMNSLKPEDTAVYYCAAEGSLNSFYYSYYYWGQGTQVTVSS”, the “polyreactivity (PSR sort gate)” value is reported as “high polyreactivity”.
The value for “QVQLVESGGGLVQAGGSLRLSCAASGSIFYINAMGWYRQAPGKERELVAAITSDGSTYYADSVKGRFTISRDNAKNTVYLQMNSLKPEDTAVYYCAADLTSDQYLYYWYWFYSWGQGTQVTVSS” was “low polyreactivity”.
